Measurements: the supplement of paper PMC9170038

System: MS2 coat protein
Assay: apparent KD of MS2 coat protein; designed switch direction (-1 OFF switch, 1 ON switch): 1; higher = weaker reporter binding
How it was run: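 Three titration conditions were used: no input, 200 uM small-molecule ligand, and an oligonucleotide input. In each, SNAP-549-labelled MS2 coat protein was raised from 0.7 or 1.5 nM, doubling, to 3 µM over designed RNA switches transcribed on Illumina chips by stalled E. coli RNA polymerase. Curve fits of normalised cluster fluorescence gave values whose per-design median over clusters is the apparent KD.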

[1] = input ligand: microRNA oligo, concentration not stated
[2] = Eterna round: R95, input ligand: FMN 200 uM
[3] = Eterna round: R95, input ligand: microRNA oligo, concentration not stated
[4] = Eterna round: R95, input ligand: none

| Sequence | apparent KD of MS2 coat protein (input ligand: FMN 200 uM) [nM] | apparent KD of MS2 coat protein [1] [nM] | apparent KD of MS2 coat protein (input ligand: none) [nM] | apparent KD of MS2 coat protein [2] [nM] | apparent KD of MS2 coat protein [3] [nM] | apparent KD of MS2 coat protein [4] [nM] |
| --- | --- | --- | --- | --- | --- | --- |
| CUGAGAUGUCAAGGAUAUCACGUCGAUUAGACGUGAGAAGGUGAUCUGCACAUGAGGAUCACCCAUGUGUUACAUGGAACUCAG [Brourd's SSNG1/1-A2 mod 11] (Eterna round: R96, puzzle: Same State NG 1) | 197 | 386 | 431 | – | – | – |
| UUGGUGUAGAUACAGGAUAUGUUGCUCGUAACAUGAGGAUCACCCAUGUAUCUAUGAGAUUAAAUGCAGAAGGGUGCACAUCACU [salish99_ss2_r3_088] (puzzle: Same State 2) | – | – | – | 121 | 54.2 | 329 |
| CCGGACAUGAGGAUCACCCAUGUCGACGGAUACCCUUGGGCAUAGGAUAUCUGGAAUUAAAAGAAAGAGAAGGGUGAUCCAAGG [Qusoinrege] (Eterna round: R96, puzzle: Same State NG 3) | 23.6 | 40.8 | 40.4 | – | – | – |
| UGGAUCUAGGCUUGCCUGGGUCCAUGCUGACAUGAGGAUCACCCAUGUGCAUCCUACAAGCUUUUUGCUUGUCUGUC (Eterna round: R96, puzzle: Sensor for hsa-mir-208a) | 384 | 607 | 530 | – | – | – |
| UGGUACAUGGGAGGAUAUGGGCAUGAGACAUGAGGAUCACCCAUGUAUUAAAAGCCGAAAGGCAUCUAGAAGGCCCAUGUACCU [JL SSNG1 3.85] (Eterna round: R96, puzzle: Same State NG 2) | 17.1 | 137 | 214 | – | – | – |
| AAUAAACAUGAGGAUCACCCAUGUAGUGCUUUAGCAGGAUAUGUGAGGAUCAAAUCCAUGGCAGAAGGGUUAUGGC [Inondiorbi] (puzzle: Same State 1) | – | – | – | 20.1 | 43 | 67.1 |
| GACAAUCUAUCUGAGGAUAUCAUGAGAAGAACAUGAGGAUCACCCAUGUGCAGGAAAACUGCAUAUGAGAAGGCAGAUAGAUUGA [Mat - Same State 2 - Mod - D16] (puzzle: Same State 2) | – | – | – | 43.7 | 1600 | 1820 |
| CGUGAACAUGAGGAUCACCCAUGUGAAAAACAUAGAGGAUAUGUCACGUGAGUGUAAAAGACAGAAGGCUAUCGUG [Mod 3 of Round 1 starryjess' Mod pf Nando] (Eterna round: R96, puzzle: Same State 1) | 38.1 | 78.3 | 77.6 | – | – | – |
| ACAAGACAUGAGGAUCACCCAUGUCCCAAUGACACAGGAUAUCGGUAGGCAUAGCCUACGCGAGAAGGGUGACUUC [Same State 1 - Mod of Vinnie Gere v.1] (puzzle: Same State 1) | – | – | – | 198 | 68.3 | 73 |
| GUAGCAUACCGAGGAUAUUCAUAUACAUGAGGAUCACCCAUGUUUAGGCCACAUUAGUGGCCUUGGGAGAAGGCGGAAUGCUAC [Xeonanis - 20 Mod44] (Eterna round: R96, puzzle: Same State NG 2) | 13 | 15.7 | 23.4 | – | – | – |
| AGAAGGAGAGCGCAGGAUAUCGAUAAUGACACAUGAGGAUCACCCAUGUUUGGUAUUAGAAGGAACGAGAAGGGUGAAAGGAGAA [knee_arm_01] (puzzle: Same State 2) | – | – | – | 59.2 | 59.8 | 116 |
| GCUCGUACGAUGACCGACAUGAGGAUCACCCAUGUGUGUCGGUAGGAUAUCUAUAUUAAGGAUUUAGAGAAGGGCCCAACGAGC [SameState NG3 #19] (Eterna round: R96, puzzle: Same State NG 3) | 63.3 | 66.5 | 82 | – | – | – |
| UUACUCAUGUAAGGAUAUGCAGCCGAAACGGCUGCAGAAGGUACUAAAAUACAUGAGGAUCACCCAUGUCUUUUUAAUUUAGAC [Mat - Same State NG 1 - JL mod - D83] (Eterna round: R96, puzzle: Same State NG 1) | 58.4 | 28.4 | 33.3 | – | – | – |
| AAAUCAAGUAAAACAUGAGGAUCACCCAUGUGAGAAGCUUCCAAGGAUAUGGUAUGCAUGGAAACCCAGAAGGUGGUCAAAGCA [Eternabot solution 29] (Eterna round: R96, puzzle: Same State NG 3) | 247 | 181 | 272 | – | – | – |
| AUAAGUUCGAUGCUCGUCUCUCCGUACAAACAUGAGGAUCACCCAUGUGAUUGAGCAGUAGCCCAAUCAGUAUGGCC [Tileus] (puzzle: Sensor for hsa-mir-208a) | – | – | – | 45.1 | 23.9 | 47.9 |
| GGCGCCGGCGCAGGAUAUAAUAGCACCAACAAAUUAGAAGGGUGUCUGACUUAAACAUGAGGAUCACCCAUGUGCGCCACAAAA [Eternabot solution 2] (Eterna round: R96, puzzle: Same State NG 1) | 198 | 137 | 311 | – | – | – |

| Sequence | apparent KD of MS2 coat protein (input ligand: FMN 200 uM) [nM] | apparent KD of MS2 coat protein [1] [nM] | apparent KD of MS2 coat protein (input ligand: none) [nM] | apparent KD of MS2 coat protein [2] [nM] | apparent KD of MS2 coat protein [3] [nM] | apparent KD of MS2 coat protein [4] [nM] |
| --- | --- | --- | --- | --- | --- | --- |
| AUUAAACAUGAGGAUCACCCAUGUCUACAAAGUCGAGGAUAUGGGCAAAUAAAAUAAGAACCAGAAGGCGAAUAAU [salish99_ss1_r3_072] (puzzle: Same State 1) | – | – | – | 60.3 | 613 | 533 |
| ACCCGCGACGGAGGAUAUGGGCACUCGGCGGAAUAAACCGCCAUAACAUGAGGAUCACCCAUGUCCCAGAAGGCCGUCGCAAUC [Zaonesdive] (Eterna round: R96, puzzle: Same State NG 2) | 107 | 303 | 2620 | – | – | – |
| GCUCGAAUCAGAACCAACAUGAGGAUCACCCAUGUGUGUUGGUAGGAUAUCGUUUCUAAGAGAAACGAGAAGGGCCGAACGAGC [SameState NG3 #6] (Eterna round: R96, puzzle: Same State NG 3) | 41 | 52.3 | 75.7 | – | – | – |
| GGAGCCGGCACCGAGGAUAUUCAUAUUAAAACAUGAGGAUCACCCAUGUAGGCCAGAAGGCCUUGGGAGAAGGCGGACCGGCUCG [Xeonanis - 4] (puzzle: Same State 2) | – | – | – | 24 | 520 | 664 |
| AAAAGAAACGCAGGAUAUGCACAUGAGGAUCACCCAUGUCCCACGGGCUCGACCGAGCCUGUGAAGCAGAAGGGUGUAAGAAAA [Erleusor] (Eterna round: R96, puzzle: Same State NG 2) | 54.1 | 208 | 74.7 | – | – | – |
| GCGGAGAGGUAAGGAUAUCCAUGGAAGAAACAUGAGGAUCACCCAUGUAGGAAGAAGACUAGGAGGGAGAAGGUACCGGGACGC [AK SSNG2-V2-20.1] (Eterna round: R96, puzzle: Same State NG 2) | 29.2 | 26.2 | 40.5 | – | – | – |
| UACUGAGUCGUAGGAUAUGUAGGAUAUGGCGAGAGCUAAGCUUGGAAGUCACUUCAGCCAGAAGGACAGAAGGACGACUCUCUC [pwkr ssNG2 2FMN + F9.13] (Eterna round: R96, puzzle: Same State NG 2) | 40 | 273 | 51.1 | – | – | – |
| UAUUUAAUCAUAGGAUAUAGUGUGAAAUUUGGACUAGAAGGAUGUAACAUGAGGAUCACCCAUGUGGUAAGUGGGACACAGUGA [JR_SSNG1_Sub096] (Eterna round: R96, puzzle: Same State NG 1) | – | 114 | – | – | – | – |
| UGGUACAUGGGAGGAUAUGGGCAAGAGACAUGAGGAUCACCCAUGUAUUAAAAGCCGAAAGGCAUCUAGAAGGCCCAUGUACCU [JL SSNG1 3.86] (Eterna round: R96, puzzle: Same State NG 2) | 13.3 | 55.9 | 86.7 | – | – | – |
| AUUAUUUAUGCAGGAUAUGAUUAACAUGAGGAUCACCCAUGUGGUGUUGUGAGUAAGGAGAGUGAUCAGAAGGGCAUUUUAUUU [JMF's solution 50] (Eterna round: R96, puzzle: Same State NG 2) | 1560 | 522 | 571 | – | – | – |
| ACUUGCUUUUUGCUCAUCUUAUGUCCGAAACAUGAGGAUCACCCAUGUGUAGAUUAUGUGUUGUUUUUGAUACGUGA [JR_SHM208A_Sub066] (puzzle: Sensor for hsa-mir-208a) | – | – | – | 24.9 | 19 | 26.9 |
| UUUAGGAACGGGCAGGAUAUGUAUUAAAAUACAUGAGGAUCACCCAUGUGCGGGUAUAACACCCGACAGAAGGGCCAAUCGUUCC [Laonerce - 9] (puzzle: Same State 2) | – | – | – | 22.7 | 170 | 231 |
| GAGUGGCGGUUAGGAUAUACAGUGAUAAUGAUAGUAGAAGGAACUGACAUGAGGAUCACCCAUGUAGGACUAAUCCAGAGAGAG [Parity 31 - Jieux - Same State NG 1] (Eterna round: R96, puzzle: Same State NG 1) | 43.6 | 21.7 | 33.7 | – | – | – |
| GUAGCAUGCAGCGAGGAUAUUCAUAUUAAAACAUGAGGAUCACCCAUGUAGGCCAAAAGGCCUUGGGAGAAGGCGCACAUGCUAC [Xeonanis - 20] (Eterna round: R96, puzzle: Same State 2) | 37.8 | 360 | 536 | – | – | – |
| UUAUAACAUGAGGAUCACCCAUGUCAACAAAGUCGAGGAUAUGGGCAUAGAUUAUAAGAACCAGAAGGCGAAUAUU [Mat - Same State 1 - Mod of UCT - D40] (puzzle: Same State 1) | – | – | – | 51.8 | 117 | 118 |
